Laboratory results from publication doi:10.1101/2021.02.17.431740 (bioRxiv, 2021).
Non-standard residues stand in square brackets, D forms with d. pY = N[C@@H](Cc1ccc(OP(=O)(O)O)cc1)C(=O)O

Key:
[1] = molecular target: recombinant full-length human CrkII (human, UniProt P46108-1 1-304); assay: ITC
[2] = molecular target: recombinant full-length human Grb2 (human, UniProt P62993-1 1-217); assay: ITC
Chain of recombinant full-length human Grb2 (P62993 whole entry): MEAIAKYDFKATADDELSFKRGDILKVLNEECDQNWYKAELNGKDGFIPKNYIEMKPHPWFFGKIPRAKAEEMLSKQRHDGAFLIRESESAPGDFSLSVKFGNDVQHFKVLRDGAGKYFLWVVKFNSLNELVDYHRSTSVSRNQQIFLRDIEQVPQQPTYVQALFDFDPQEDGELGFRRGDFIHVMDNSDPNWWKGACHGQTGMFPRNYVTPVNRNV

Chain of recombinant full-length human CrkII (P46108 whole entry): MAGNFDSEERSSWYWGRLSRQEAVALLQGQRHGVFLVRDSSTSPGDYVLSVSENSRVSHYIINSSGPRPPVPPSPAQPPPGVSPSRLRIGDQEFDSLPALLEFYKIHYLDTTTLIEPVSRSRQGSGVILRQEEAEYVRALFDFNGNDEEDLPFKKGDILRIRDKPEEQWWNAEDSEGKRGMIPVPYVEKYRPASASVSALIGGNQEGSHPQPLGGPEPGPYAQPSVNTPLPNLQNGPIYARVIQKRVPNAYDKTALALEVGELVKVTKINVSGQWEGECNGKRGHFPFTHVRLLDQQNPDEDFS

In the case of Ac-T[pY]SNLGQ-NH2 [PEAK3 phosphorylated peptide Ac-T(pY)SNLGQ-NH2], the Kd [1] is reported as 7.8 µM, the “stoichiometry N” value [1] is reported as 1 and the “stoichiometry N” value [2] is reported as 1.
